Target: MC4R of the CHO stable cell line used for radioligand displacement (Table 1A) (UniProt P32245)
Assay: radioligand displacement, CHO stable cell line, n = 2; radioligand not named

B1: pN0162 (VHH)
VHH: QVQLVESGGGLVQPGGSLRLSCAASGSAFSLNVMGWYRQTPGNQRALVAEITKDGSTNYADSAKGRFTISRDNAKNTVHLQMDSLKPEDTAVYYCKARTGRIVRPLDYWGQGTQVTVSS
Work on B1 yielded a Radioligand displacement (IC50 or Ki not stated) of 6.48 nM.
